Data published in the DeepSol protein solubility set.

Assay: soluble on expression in E. coli; label from the status in PepcDB or PDB records

Sequence	soluble on expression in E. coli
MAHHHHHHMLSRVAAVKAPRTHNRRRVTGSSGRTREGGESEPRRPNMSRRVFPSAVLLLLVTMMCCDRGAATAQVEKATDASTPSGSALTGAITAEGSASGGVERPQRVDLFVPQTKQVLQKTGTDSGRRDSFVSPSLVSAGGVIAAFAEGHINAKNPIPNQLSRLLMLLRSTSTLRGNGPLLLKRSIKKEWSARTVLGKAEGNESFDVVRHPTTTMKGNKMFLLAGSTALSDLNGSWKEGSLEIKLVVGEVTKPTDSEQSKRIEWGEIKSPLNGSTLAAHKGNLTECLASGGSGVLMEDGTLVFSLMAVNEKNDGVYSMIIYSKDNGSTWALSEDISPAKCLNPRITEWEGSLLMIVDCENDQRV	not soluble
MATFNSYTVDEIREIVDPDHPETLLEQAKGWAEMADLLSEYGVLLEQRLELVEDSWTGDAARLYFDEVKRMQEYIEESAERATTNAGLWFLIGTLAGIAKHDVSYIHKLWKDLDNVTDAVGLGFILEAIGVDKAVEDFKRMPYDVASRQIMEATATAAEESYSQMRDFEEFKPPPDVDGSGPTLQSVSAVAPPGGAVSLPSTTIVSNAAMPPLGPVAMRPVVPGVIGSRPGMTSMPRPMMGPGHTVRPVIGQRTGESQQTKTPGRLIGRYGVVSATPDVDMRDPKASRIHYGGDDVNRGVIKNNDPQRAAEEARFKLEEEVLRLRERAFAHRADDLTPAHTQHVLPGIVGDDSGWDRKTHDPGPVAFEMRRRPDRDDDAWTVI	not soluble
MTTCGEFLVKQLEAWGVETVFGIPGVHTVELYRGLPGSRIRHVTPRHEQGAGFMADGYARVTGKPGVCFIITGPGMTNILTAMAQAYADSIPMLVISSVNERARLAHGNGYLHELPNQRNLVGNVCAFSHTLMSAEELPAVLARAFAVFDSERPRPVHIELPLDVITAPAEHLALRPRTVTSRPAPALAPLREAAARLRNAKKPLLLLGGGCVEAAAEARALAAALDAPTALTINAKGLLPADHPLLLGSNQSCVPVRELATEADVVLAIGTELGETDYDVVFDGGFALDGELIRIDIDPQQLMRNYTPSLAIHSDARLAMRVLLAELPGGEASPDSPGARRAAAVRQRLAEDFAGWSHYRQLFAAILAEWPDARFVGDSTQTVYSGNHLVDLDEPRRWFNASTGYGTLGYGLPAAIGAKLGEPGRPVVSLMGDGGLQFTLPELASAVEAKVGIVVLLWNNHGYGEIKRYMERREITPLGVDIYTPDFLAIARGFGCAAERARDLEHLRELLRGAPADRPLIVEVLQAAPFHP	not soluble
GAMRIMRPDDANVAGNVHGGTILKMIEEAGAIISTRHCNSQNGERCVAALARVERTDFLSPMCIGEVAHVSAEITYTSKHSVEVQVHVMSENILTGTKKLTNKATLWYVPLSLKNVDKVLEVPPIVYLRQEQEEEGRKRYEAQKLERMETK	soluble
GMTESDRDQEASMREVVIVKSTPQRGKFNAFAELVGKLVSETRDFPGCLGAYLMLAPERNEQVVMHIWETPDALEAYLTWRADRGDFLEINEYLEVEQDFKTYQLA	soluble
MRKLTAMLVASSLALGAAGLAHANEAPKGPGSEHKMMMKEGREHRGMMGSDAMFKELNLTEAQKQQIKDIMKDSREKMHKAMQDDRRDMHSLVASDTFDAAKAQAQLDKADAAHKARMLSGLETKNKIYNVLTPEQKKQYNDSFEKRLTQPPKPDGKPVPAELEHHHHHH	soluble
MGSDKIHHHHHHMINQVYQLVAPRQFDVTYNNVDIYGNHVIVRPLYLSICAADQRYYTGRRDENVLRKKLPMSLVHEAVGEVVFDSKGVFEKGTKVVMVPNTPTEQHHIIAENYLASSYFRSSGYDGFMQDYVVMAHDRIVPLPNDIDLSTISYTELVSVSYHAIQRFERKSIPLKNSFGIWGDGNLGYITAILLRKLYPEAKIYVFGKTDYKLSHFSFVDDIFTVNQIPDDLKIDHAFECVGGKGSQVALQQIVEHISPEGSIALLGVSELPVEVNTRLVLEKGLTLIGSSRSGSKDFEQVVDLYRKYPDIVEKLALLKGHEINVCTMQDIVQAFEMDLSTSWGKTVLKWTI	not soluble
MSLSDQSQIIAGFTLWHLSLPVTARRDHGIGSVAGAVEVVVLRLQADSGAVGYGEASPWVVFTGSVEATYAALDRYLRPLVLGRAVGDHAAIMEDARAAVAHCTEAKAALDTALYDLRARIAGVPVWALLGGRCRDRIPLSCSIADPDFDKDLALMQRLQDDDVRIIKLKTGFKDHAFDMMRLERLRADFPAFDIRVDYNQGLHHDVALARVRDVATFKPTFIEQPVKAHLRGLMARIRDAVDVPLLADESIFGPEDMAEHPEIADGVSIKIMKSGGLTRAQTVARMAAARGLSAYGGDMFEAGLAHLAGAHMIAATPEITLGCEFYQATYFLCDDILAAPFPVADGHVLVPDTPGLGVDVDEDALARFAVAREGHHHHHH	soluble
MGSDKIHHHHHHSPTTTVTTTDASVTTTPPTTTPPTTAVVTDCTTCTAALITLTQGTDGAVDATPVEGVDATGCATITYTCENTPVDAQNVIFLTFYGGGIDRGVDQGTGSLNVLLNCVDGAWVRGGLVIDEILCQVI	not soluble
SDLPRHIAVLCDGNRRWARSAGYDDVSYGYRMGAAKIAEMLRWCHEAGIELATVYLLSTENLQRDPDELAALIEIITDVVEEICAPANHWSVRTVGDLGLIGEEPARRLRGAVESTPEVASFHVNVAVGYGGRREIVDAVRALLSKELANGATAEELVDAVTVEGISENLYTSGQPDPDLVIRTSGEQRLSGFLLWQSAYSEMWFTEAHWPAFRHVDFLRALRDYSAR	soluble
MGSDKIHHHHHHMTLEHRWTGAISRLDLASGVLQQPDGDWVDEQLHHGTKVVVILRGAMRALIDGCGSEFSIAGPTVCVIRAPADASGRQMITADEPLHYVMVKAAFEPGSEADRERDPLAPLFCTDRPSLQHIEAPRALQALCTQLEVCPFVGAARDLFLSAKAIEILALACDAVETNIATETLRPSLGDVERLKKARAILLERLGAPPNLPALAAAVGMNPRKLTDGFQAAFGTTVNDFLQDARLNEAYRLLSSGATNVSEAAHRVGYTPAYFSAVFRKRFGISPRDLL	not soluble
MDVADISKKQSILKQFEREGVKNVLFTDCLRQHDENVKKHPVIRCLMFQIVPLVSKLIESTSRFHREEERCYCLMVIGVPNVGKSSLINALRRTYLKKGKASKVGAEPGITKAVLTKIQVCERPIIHLLDTPGVLPPRIENIETGMKLALCGTVLDHLVGEDVIADFLLFSLNRLERFSYVEKYSLEEPCDDIQHVLKCIAVKLGKTRRVKAITGVGNITVQLPDYSAAAYDFIRAFRKGELGKVMLD	not soluble
MAHHHHHHMMAHRCAFQTIASPALTQREVEFTKSAWIAGLRPDQRGAQQLREVNVDFPLLSRDVSCVRCGGTIVTAAIACELVEPFPCRPKHGIIDFSVRQPYTERDSSAKTAELKKLTAFLERLIKGGGVVDTEGLCVLPGRRVWSISVDVTVLNDEGNVTDVAVWATVAVLLHYRRPELTIRGDSVILHPTHERDPVPLSIHHTPLSFSFAITMAPGDRNKLARGRRDSQEALEVVVDPTFAEATAASSSVVVAVNAEGQVCSVSKSEGSCIHLNEVNHCMETASLLAPHILSLIRDAMAAHDKRRQEVLKRMFLWAQKRSGVTSEATEPEPAKKLKTET	not soluble
MGSDKIHHHHHHMARVKEEADRISEQANSHIENIRRQIEQEKNDWAAEKQKLIEEAKAEGFEQGVALGKAEAMKQYAELIGQANTITEMSRKAVEDKLEDANEEIVELAVALAKKVWQQKSDDKEAFLLLVQQVINEVKEYDDISIYVDPYYYETIFQQKDEIQQLLYKECRLGIYADEKAQKGTCYIETPFGRVDASVDTQLMQLKDKLLTALEAGAAE	not soluble
MGSDKIHHHHHHMSVHSEVLHALLKDPFIQKLIDAEPVFWANSGKKEGPLPRADEWATEIAEAEKRMQRFAPYIAEVFPETKGAKGIIESPLFEVQHMKGKLEAAYQQPFPGRWLLKCDHELPISGSIKARGGIYEVLKYAENLALQEGMLQETDDYRILQEERFTGFFSRYSIAVGSTGNLGLSIGIIGAALGFRVTVHMSADAKQWKKDLLRQKGVTVMEYETDYSEAVNEGRRQAEQDPFCYFIDDEHSRQLFLGYAVAASRLKTQLDCMNIKPSLETPLFVYLPCGVGGGPGGVAFGLKLLYGDDVHVFFAEPTHSPCMLLGLYSGLHEKISVQDIGLDNQTAADGLAVGRPSGFVGKLIEPLLSGCYTVEDNTLYTLLHMLAVSEDKYLEPSALAGMFGPVQLFSTEEGRRYAQKYKMEHAVHVVWGTGGSMVPKDEMAAYNRIGADLLKKRNGK	not soluble
MGSDKIHHHHHHMPAYKVLQKGKTGDLLNVKHLYIKDIQSGEKVQDSFLVTEKNVAYSQKGAPYLNLRLKDKTGQVDGKIWDNALEWDKRFRKGDVVQVNARAVSFRNSLQLSILSLNTLDDSEVILNDYVPTTRMNVEVMFSELQSIIDRIDTPPLKKLLKSFFDDREIAERFKRAPAAKGFHHIYLGGLLEHTHSVTRLLSQIASHYPGVNRDLLLTGGILHDIGKINEFSYDRLVEYSDEGRLIGHIIIGVEMIDEKITAIPDFPAYLAMELRHLILSHHGILEYGSPKRPKTLEALMVHYVDDLDAKVNAFQEYLNDFRDEDTGWTPFHRFLERYLYRGRVQEITAEEPISPKEF	not soluble
MAHHHHHHMLKCARYLFGPPNTKRKCAPLFSARNFSILERYIRAKPLSHELKIEEAKNEGIKGEGDRNGEERKASEKSASTYYPPNITRGVIPKSAYMNTWKIPEQPANPKFLKVALIGAPNAGKSSLLNSILNKTISAVSPKINTTRQDIKGIYTKDNVQLIFIDSPGIVPSHKKKKFCKELVSYAWKGYEEADLVLFIADTVKRPTHDVLNIIRMLAPKKVEAYSSGSEDEGETQHYMFNHPSEDHDQEEHFEWNGKPQSDLNSSSTNEELYEKSQKNVQKFVEYFSTAMEKEAKYSDKSVKENLLKNRKKIIESYSNDVDGKDSPNGEGEQQKLVPPVILVLNKVDLCTHNKWANARAKEFMSNGNFDNIFFISAKYNKGVEELLDYIAKFKAKNQFWVYPKDSNTTLTKVQVVEQLINTYLYCWFNKDVPYRVKHHMLSWCVNLNNSLIIEYQIVVKSPKVAKMICGVHNKLIINMRRNVSYKLTQLWGQNVYVHIHVKSVSA	not soluble
MSLKIAIVGCGAMGSVYAGLLASAGNSLWIVDRWKAHVEAINSRGLRLEGPQRDLTAFAHASTTAPDEPMDLVIIAVKASDVETGAQQTLSMIGPETIVLTIQNGLGSADAVAQVVGVDRLAVGIASGFGASLKGPGHAHHNAMQALRFGAYSSLPYERVVAVARVWESAGFDAKAIRDIAVMQWEKLICNVAYSAPCALTGMTVGEVMNDPCMGPVSQAAATEAWSVARALGIQIDVDDPVAHVRAFGARMPAAKPSALLDHEAGRISEIDVINGAVPTQGNKLGIATPVNSTLTQLVRVKERQFREGHHHHHH	soluble
GHGHMHGRLKVKTSEEQAEAKRLEREQKLKLYQSATQAVFQKRQAGELDESVLELTSQILGANPDFATLWNCRREVLQHLETEKSPEESAALVKAELGFLESCLRVNPKSYGTWHHRCWLLSRLPEPNWARELELCARFLEADERNFHCWDYRRFVAAQAAVAPAEELAFTDSLITRNFSNYSSWHYRSCLLPQLHPQPDSGPQGRLPENVLLKELELVQNAFFTDPNDQSAWFYHRWLLGAGSGRCELSVEKSTVLQSELESCKELQELEPENKWCLLTIILLMRALDPLLYEKETLQYFSTLKAVDPMRAAYLDDLRSKFLLENSVLKMEYA	soluble
MAHHHHHHMFPASGSGPGVAGSALKGFKGMHHKPPNYPYPYVVGVDGAGEVESVGRKVTGLKAGDRVMFHSSLTNAHGGSLCEYAVMEESVAVPIPADGARPFSYEEAAAIPCATWTAYVALFDKLRIEPGRSIFVDGASGAVGSCAVQLAHHMGLYVFASCSPSNADYVRSIGADQVLNYHDGIEMVDQILDATEGYGVDYYLAVTNTQDAESFTDALRFGGAVCLLSGVLIPNSNVLFRRQLSVHYVFLNGLHGHPLTRPQLRYIGDQVAKLYQSGAFRLDVEVLPFAEAAKALDRSATGNVNHKKLIVQVASP	not soluble
